Measurements from US20110064740A1 (GlaxoSmithKline, published 2011).

What was measured:
[1] = biological target: T1, human beta-amyloid peptide (1-42) (human, UniProt P05067 672-713); experiment: SPR Biacore 3000, Method B: antibody captured, β-amyloid as analyte
T1 construct: domain: beta-amyloid peptide (1-42); Unlabelled peptide: amine-coupled to a CM5 chip (Method A(ii)) or in solution as analyte (Method B); also called beta-amyloid (1-42)
Method: (§1) In the second instance the assay was reversed, in that antibodies were first captured to a level of 1000-2500 resonance units on an anti-mouse IgG polyclonal antibody surface (for recombinant mouse 2E7 MAb) or a protein A surface (for humanized H2L1) of a CM5 biosensor chip. Freshly prepared beta-amyloid (1-40) or (1-42) was diluted down in HBS-EP buffer and passed over the captured-antibody surface at concentrations ranging from 4-500 nM (Table 10C and 10D).
(§2) In both methods, regeneration was via a pulse of 100 mM H₃PO₄, and for Table 10A data also followed by a pulse of 50 mM NaOH. […] All runs were double referenced against buffer blank injections. Analysis was carried out using the Biacore™ analysis software BIAevaluation version 4.1.

[2] = biological target: T2, human beta-amyloid peptide (1-40) (human, UniProt P05067 672-711); experiment: as above
T2 construct: domain: beta-amyloid peptide (1-40); Unlabelled peptide: amine-coupled to a CM5 chip (Method A(ii)) or in solution as analyte (Method B); also called beta-amyloid (1-40)
T2 sequence (P05067 672-711 limits assumed): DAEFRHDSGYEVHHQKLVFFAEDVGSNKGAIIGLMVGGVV
Method: as §1, §2

[3] = biological target: T3, human Aβ peptide (1-40) biotinylated at the C terminus (human, UniProt P05067 672-711, biotinylated at the C-terminus); experiment: SPR Biacore 3000, Method A(i): C-terminally biotinylated β-amyloid 1-40 on streptavidin chip, antibody as analyte; Average(SD) of two runs
T3 construct: domain: β-amyloid peptide (1-40); Numbers 1-40 count on the β-amyloid peptide, not on APP; also called beta-amyloid 1-40 peptide (biotinylated at the C-terminus); streptavidin-captured beta-amyloid (1-40)
T3 sequence (P05067 672-711 limits assumed): as above
Method: (§3) (i) Briefly, <20 resonance units of beta-amyloid 1-40 peptide (biotinylated at the C-terminus) were captured on a streptavidin biosensor chip (as used for Table 10A). The antibodies were diluted down in HBS-EP buffer and passed over the streptavidin/beta-amyloid surface at concentrations ranging from 0.001 nM-8 nM (for Table 10A). Two separate runs were carried out; each run was carried out on a new streptavidin/beta-amyloid surface. Runs 1 and 2 were essentially the same though there were some differences in the parameters used; Run 1 was carried out using a chip surface on which 16 RU's of beta-amyloid were captured, and antibody concentrations of 0.001 nM-8 nM were used, an association time of 4 minutes and a dissociation time of 20 minutes were used at a flow rate of 50 μl per minute. For Run 2, less than 10 RU's of beta-amyloid were captured and antibody concentrations of 0.003125 nM-8 nM were used. The flow rate and association times were the same as Run 1, however the dissociation time was reduced to 15 minutes. (ii) Beta amyloid (1-40) and (1-42) were amine-coupled on different surfaces of a CM5 biosensor chip to a level of <20 resonance units (as used for Table 10B). The antibodies were diluted down in HBS-EP buffer and passed over the biosensor/beta-amyloid surface at concentrations ranging from 1 nM-64 nM (as used for Table 10B).
as §2

[4] = biological target: T3, human Aβ peptide (1-40) biotinylated at …; experiment: competition ELISA, biotinylated human Aβ (1-40) on streptavidin plate; competitor: mouse 2E7 at constant concentration; Experiment 2
Method: (§4) Two types of competition ELISA were established in order to compare the Aβ binding activity of the three humanised variants compared to the 2E7 chimeric antibody. 1) Immobilised β-amyloid; biotinylated human Aβ peptide (1-40) was immobilized through Streptavidin on ELISA plates Mouse 2E7 antibody was added at a constant concentration along with a dilution series of 2E7-derived humanised variant antibodies. Bound mouse 2E7 MAb was then detected with anti-mouse IgG conjugate.

[5] = biological target: T3, human Aβ peptide (1-40) biotinylated at …; experiment: competition ELISA, biotinylated human Aβ (1-40) on streptavidin plate; competitor: mouse 2E7 at constant concentration; Experiment 1
Method: as §4

[6] = biological target: T3, human Aβ peptide (1-40) biotinylated at …; experiment: Aβ binding ELISA, human Aβ (1-40) biotinylated at the C terminus
[7] = biological target: T3, human Aβ peptide (1-40) biotinylated at …; experiment: as above; remark: listed apart in the source
[8] = biological target: T4, human Aβ peptide (length not stated) (human, UniProt P05067 672-711); experiment: competition ELISA, β-amyloid in solution pre-incubated with the antibody; competitor: immobilised mouse 2E7; Experiment 1
T4 construct: also called β-amyloid in solution
T4 sequence (P05067 672-711): as the sequence (P05067 672-711 limits assumed) above
Method: (§5) 2) β-amyloid in solution; a constant concentration of β-amyloid was pre-incubated with a dilution series of humanised 2E7 antibody variants—the mixture including complexed and free amyloid was added for a short time to wells containing immobilised mouse 2E7 MAb. The amount of free β-amyloid that was still available for binding the immobilised parental 2E7 MAb was then detected.

[9] = biological target: T3, human Aβ peptide (1-40) biotinylated at …; experiment: Aβ binding ELISA, human Aβ (1-40) biotinylated at the C terminus; remark: listed apart in the source
[10] = biological target: T3, human Aβ peptide (1-40) biotinylated at …; experiment: SPR Biacore 3000, Method A(i): C-terminally biotinylated β-amyloid 1-40 on streptavidin chip, antibody as analyte; Run 2
Method: as §3, §2

[11] = biological target: T3, human Aβ peptide (1-40) biotinylated at …; experiment: SPR Biacore 3000, Method A(i): C-terminally biotinylated β-amyloid 1-40 on streptavidin chip, antibody as analyte; Run 1
Method: as §3, §2

[12] = biological target: T4, human Aβ peptide (length not stated); experiment: competition ELISA, β-amyloid in solution pre-incubated with the antibody; competitor: immobilised mouse 2E7; Experiment 2
Method: as §5

[13] = biological target: T3, human Aβ peptide (1-40) biotinylated at …; experiment: Aβ binding ELISA with culture supernatant, Aβ peptide (1-40)

T1 sequence (P05067 672-713 limits assumed): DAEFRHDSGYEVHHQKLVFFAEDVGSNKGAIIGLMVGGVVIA

Kd [3] [nM]	IC50 [4] [mg/L]	IC50 [5] [mg/L]	EC50 [6] [mg/L]	EC50 [7] [mg/L]	IC50 [8] [mg/L]	EC50 [9] [mg/L]	Kd [10] [nM]	Kd [11] [nM]	EC50 [13] [mg/L]	Binder	also measured
										2F11, an identical sequence clone to mouse 2E7 MAb (antibody, V domains shown, Mouse antibody) VH: EVKLVESGGGLVQPGGSLKLSCAVSGFTFSDNGMAWVRQAPRKGPEWIAFISNLAYSIDYADTVTGRFTISRDNAKNTLYLEMSSLRSEDTAMYYCVSGTWFAYWGQGTLVTVSA VL: DVVLTQTPLSLPVSLGDQASISCRVSQSLLHSNGYTYLHWYLQKPGQSPKLLIYKVSNRFSGVPDRFSGSGSGTDFTLKISRVEAEDLGVYFCSQTRHVPYTFGGGTKLEIK	Kd [1]: 1.14 nM; koff [1]: 0.000274 s⁻¹; kon [1]: 239000 M⁻¹ s⁻¹; Kd [2]: 1.31 nM; koff [2]: 0.000392 s⁻¹; kon [2]: 299000 M⁻¹ s⁻¹
0.0458	1.29	1.31	0.033	0.043	0.052	0.044	0.0435	0.0481		Chimeric 2E7 antibody (2E7c) (antibody, human IgG1, V domains shown, Parent murine V regions on human IgG1 (L235A, G237A) and human C kappa; also called 2E7c Chimera; not shown: human IgG1 heavy chain constant region, Fc mutated (L235A, G237A); human C kappa constant region) VH: EVKLVESGGGLVQPGGSLKLSCAVSGFTFSDNGMAWVRQAPRKGPEWIAFISNLAYSIDYADTVTGRFTISRDNAKNTLYLEMSSLRSEDTAMYYCVSGTWFAYWGQGTLVTVSA VL: DVVLTQTPLSLPVSLGDQASISCRVSQSLLHSNGYTYLHWYLQKPGQSPKLLIYKVSNRFSGVPDRFSGSGSGTDFTLKISRVEAEDLGVYFCSQTRHVPYTFGGGTKLEIK	
0.0936	1.76	1.62	0.035	0.051	0.114	0.047	0.0922	0.095		Humanised 2E7 variant H1L1 (antibody, human IgG1, kappa, V domains shown, Human IgG1 with L235A and G237A, human kappa; also called L1+H1) VH: EVQLVESGGGLVQPGGSLRLSCAASGFTFSDNGMAWVRQAPGKGLEWVSFISNLAYSIDYADTVTGRFTISRDNAKNSLYLQMNSLRAEDTAVYYCVSGTWFAYWGQGTLVTVSS VL: DIVMTQSPLSLPVTPGEPASISCRVSQSLLHSNGYTYLHWYLQKPGQSPQLLIYKVSNRFSGVPDRFSGSGSGTDFTLKISRVEAEDVGVYYCSQTRHVPYTFGGGTKVEIKR	IC50 [12]: 0.14 mg/L
									0.239	H2L1 Fab, H2 heavy chain truncated at residue 224 of the hinge region (Fab, V domains shown, Recombinant Fab from CHOK1 culture supernatant; also called (a) H2L1 Fab) VH: EVQLVESGGGLVQPGGSLRLSCAVSGFTFSDNGMAWVRQAPGKGLEWVSFISNLAYSIDYADTVTGRFTISRDNAKNSLYLQMNSLRAEDTAVYYCVSGTWFAYWGQGTLVTVSS VL: DIVMTQSPLSLPVTPGEPASISCRVSQSLLHSNGYTYLHWYLQKPGQSPQLLIYKVSNRFSGVPDRFSGSGSGTDFTLKISRVEAEDVGVYYCSQTRHVPYTFGGGTKVEIKR	
									0.226	H2L1 Fab cys, H2 heavy chain truncated at the second cysteine in the hinge region at residue 226 (Fab, V domains shown, Recombinant Fab from CHOK1 culture supernatant; also called (b) H2L1 Fab cys) VH: EVQLVESGGGLVQPGGSLRLSCAVSGFTFSDNGMAWVRQAPGKGLEWVSFISNLAYSIDYADTVTGRFTISRDNAKNSLYLQMNSLRAEDTAVYYCVSGTWFAYWGQGTLVTVSS VL: DIVMTQSPLSLPVTPGEPASISCRVSQSLLHSNGYTYLHWYLQKPGQSPQLLIYKVSNRFSGVPDRFSGSGSGTDFTLKISRVEAEDVGVYYCSQTRHVPYTFGGGTKVEIKR	
									0.227	H2L1 Fab His, H2 heavy chain truncated at position 224 with a C-terminal 6x histidine tag including histidine at position 224 (Fab, V domains shown, Recombinant Fab from CHOK1 culture supernatant) VH: EVQLVESGGGLVQPGGSLRLSCAVSGFTFSDNGMAWVRQAPGKGLEWVSFISNLAYSIDYADTVTGRFTISRDNAKNSLYLQMNSLRAEDTAVYYCVSGTWFAYWGQGTLVTVSS VL: DIVMTQSPLSLPVTPGEPASISCRVSQSLLHSNGYTYLHWYLQKPGQSPQLLIYKVSNRFSGVPDRFSGSGSGTDFTLKISRVEAEDVGVYYCSQTRHVPYTFGGGTKVEIKR	
0.0666	1.39	1.53	0.044	0.055	0.069	0.04	0.0572	0.076		Humanised 2E7 variant H3L1 (antibody, human IgG1, kappa, V domains shown, Human IgG1 with L235A and G237A, human kappa; also called L1+H3) VH: EVQLVESGGGLVQPGGSLRLSCAASGFTFSDNGMAWVRQAPGKGLEWISFISNLAYSIDYADTVTGRFTISRDNAKNSLYLQMNSLRAEDTAVYYCVSGTWFAYWGQGTLVTVSS VL: DIVMTQSPLSLPVTPGEPASISCRVSQSLLHSNGYTYLHWYLQKPGQSPQLLIYKVSNRFSGVPDRFSGSGSGTDFTLKISRVEAEDVGVYYCSQTRHVPYTFGGGTKVEIKR	IC50 [12]: 0.115 mg/L
